The text below walks through data of patent US20060253917A1 (published 2006).

First the molecules themselves.
B10: Os006819-2510 aa 1-150 (other)
chain: MAFRLSNSLLGILNAVTFLLSVPVLGGGIWLATRADGTECERYFSAPVIAFGVFLLLVSLAGLVGACCRVNCLLWFYLVAMFVLIVVLFCFTVFAFVVTNKGAGEAVSGRGYKEYRLGDYSNWLQKRMENSKNWNRIRSCLQDSKVCKKL
notes: bait, Gal4 DBD fusion; also called PN20462; Hypothetical Protein 006819-2510, Similar to Senescence-Related Protein 5 from Hemerocallis Hybrid Cultivar
B11: Os006819-2510 aa 1-273 (other)
chain: MAFRLSNSLLGILNAVTFLLSVPVLGGGIWLATRADGTECERYFSAPVIAFGVFLLLVSLAGLVGACCRVNCLLWFYLVAMFVLIVVLFCFTVFAFVVTNKGAGEAVSGRGYKEYRLGDYSNWLQKRMENSKNWNRIRSCLQDSKVCKKLQDKNWDRTQFFKADLSPLESGCCKPPSSCNFLYVSGTNWTKVPTNSSDPDCNTWVDDGTQLCYNCQSCKAGAVATLKRDWKRVAVVCIVFLVFIVIVYSLGCCAFRNNRRDNRGAYRGAAWKG
notes: bait, Gal4 DBD fusion; also called PN20462

Assay [1] has as its target T1, Os003118-3674 aa 75-149 (Oryza sativa, UniProt Q84VG0 75-148).
T1 construct: bait, Gal4 DBD fusion; also called PN20551
T1 sequence: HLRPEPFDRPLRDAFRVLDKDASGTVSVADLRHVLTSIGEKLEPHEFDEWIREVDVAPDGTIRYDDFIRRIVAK
The experiment in a line: Y2H; output trait library. An outline of the steps:
(§1)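 Protein-protein interactions were detected in an automated, high-throughput yeast two-hybrid assay from Myriad Genetics Inc. (Salt Lake City, Utah), with a bait clone encoding a defined amino-acid fragment of a rice protein screened against the input trait or output trait rice prey library. Interacting proteins were identified by BLAST comparison of the encoding sequences of retrieved prey clones against databases.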

The target of assay [2] is B10. The assay is described as follows: Y2H; output trait library. The method, boiled down: as §1
In assay [3] the target is T2, OsRBCL aa 287-462 (Oryza sativa, UniProt P0C510 287-462).
T2 construct: prey, AD fusion; also called PN23426; O. sativa Chloroplast Ribulose Bisphosphate Carboxylase, Large Chain
T2 sequence (P0C510 287-462): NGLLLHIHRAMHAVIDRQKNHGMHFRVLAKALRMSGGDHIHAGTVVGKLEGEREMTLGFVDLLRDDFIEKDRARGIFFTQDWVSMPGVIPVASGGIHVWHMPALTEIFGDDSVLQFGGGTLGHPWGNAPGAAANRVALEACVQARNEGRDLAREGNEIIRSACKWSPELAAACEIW
The experiment in a line: Y2H; input trait library. The method, boiled down:
as §1

The target in assay [4] is B10. The experiment in a line: Y2H; input trait library. The method, boiled down:
as §1

Assay [5] deals with T3, OsEXPB2 aa 80-218 (Oryza sativa, UniProt O24230 80-218).
T3 construct: prey, AD fusion; also called PN19902
T3 sequence: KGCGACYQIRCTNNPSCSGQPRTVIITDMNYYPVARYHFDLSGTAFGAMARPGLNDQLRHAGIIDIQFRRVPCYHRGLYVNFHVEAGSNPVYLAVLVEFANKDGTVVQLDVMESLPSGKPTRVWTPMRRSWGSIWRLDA
The assay is described as follows: Y2H; input trait library. The method, boiled down: as §1

Assay [6] deals with T4, OsPN23053 aa 1-180 (Oryza sativa, UniProt Q8W0H5 141-320).
T4 construct: prey, AD fusion; also called Novel Protein 23053, Fragment, Similar to Arabidopsis Putative Na+-Dependent Inorganic Phosphate Cotransporter
T4 sequence: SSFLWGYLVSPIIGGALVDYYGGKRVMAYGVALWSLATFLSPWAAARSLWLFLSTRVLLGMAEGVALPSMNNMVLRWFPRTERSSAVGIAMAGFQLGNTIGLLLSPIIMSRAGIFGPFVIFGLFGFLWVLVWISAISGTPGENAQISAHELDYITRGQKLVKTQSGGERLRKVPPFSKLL
The assay is described as follows: Y2H; input trait library. An outline of the steps: as §1

The target of assay [7] is T5, OsSGT1 aa 200-368 (Oryza sativa, UniProt Q0JL44 200-367).
T5 construct: bait, Gal4 DBD fusion; also called PN20285
T5 sequence: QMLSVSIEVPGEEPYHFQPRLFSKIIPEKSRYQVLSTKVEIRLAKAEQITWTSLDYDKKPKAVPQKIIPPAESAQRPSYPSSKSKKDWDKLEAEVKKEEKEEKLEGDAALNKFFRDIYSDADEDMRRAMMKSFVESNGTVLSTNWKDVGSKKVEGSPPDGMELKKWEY
The experiment in a line: Y2H; input trait library. The method, boiled down: as §1

In assay [8] the target is B11. The assay is described as follows: Y2H; output trait library. The method, boiled down: as §1
Assay [9] concerns the target T6, OsEXPB2 aa 80-207 (Oryza sativa, UniProt O24230 80-207).
T6 construct: prey, AD fusion; also called PN19902; Beta-Expansin EXPB2
T6 sequence: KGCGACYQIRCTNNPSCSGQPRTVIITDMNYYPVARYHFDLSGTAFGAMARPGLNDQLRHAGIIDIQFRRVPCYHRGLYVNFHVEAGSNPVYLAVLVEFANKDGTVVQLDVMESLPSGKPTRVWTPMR
The assay is described as follows: Y2H; input trait library. The method, boiled down: as §1

Assay [10] has as its target T7, Os005792-3529 aa 1-55 (Oryza sativa).
T7 construct: bait, Gal4 DBD fusion; also called PN20080; Hypothetical Protein 005792-3529 Similar to O. sativa Receptor Kinase
T7 chain: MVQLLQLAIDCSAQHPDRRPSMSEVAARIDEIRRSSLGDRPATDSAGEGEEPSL
The assay is described as follows: Y2H; output trait library. An outline of the steps: as §1

In assay [11] the target is T8, OsAAK01712 aa 90-221 (Oryza sativa, UniProt Q7Y0Y8 90-221).
T8 construct: prey, AD fusion; also called PN24059; O. sativa Histone Deacetylase HD1
T8 sequence (Q7Y0Y8 90-221): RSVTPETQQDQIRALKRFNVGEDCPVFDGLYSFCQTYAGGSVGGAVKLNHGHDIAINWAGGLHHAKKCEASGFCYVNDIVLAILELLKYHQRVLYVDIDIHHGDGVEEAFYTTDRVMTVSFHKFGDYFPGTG
The assay is described as follows: Y2H; output trait library. The method, boiled down:
as §1

Assay [12] concerns the target T9, OsPN23485 aa 90-243 (Oryza sativa, UniProt Q7XPL2 165-318).
T9 construct: prey, AD fusion; also called Novel Protein PN23485, Similar to Hordeum vulgare Coproporphyrinogen III Oxidase, chloroplast precursor
T9 sequence: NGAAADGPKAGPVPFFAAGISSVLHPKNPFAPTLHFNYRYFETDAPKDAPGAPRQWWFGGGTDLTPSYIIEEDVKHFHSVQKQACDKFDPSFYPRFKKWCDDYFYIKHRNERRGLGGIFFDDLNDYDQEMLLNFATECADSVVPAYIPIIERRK
The assay is described as follows: Y2H; output trait library. An outline of the steps:
as §1

The target in assay [13] is T10, OsSSS aa 97-263 (Oryza sativa, UniProt A2Y9M4 97-263).
T10 construct: prey, AD fusion; also called PN19701
T10 sequence: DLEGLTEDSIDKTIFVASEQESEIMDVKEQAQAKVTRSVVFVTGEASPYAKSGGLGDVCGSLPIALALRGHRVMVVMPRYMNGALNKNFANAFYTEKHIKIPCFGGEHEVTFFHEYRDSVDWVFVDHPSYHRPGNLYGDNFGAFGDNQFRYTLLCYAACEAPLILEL
The experiment in a line: Y2H; output trait library. An outline of the steps: as §1

Assay [14] deals with T11, OsSSS aa 68-270 (Oryza sativa, UniProt A2Y9M4 68-270).
T11 construct: prey, AD fusion; also called PN19701; Soluble Starch Synthase
T11 sequence: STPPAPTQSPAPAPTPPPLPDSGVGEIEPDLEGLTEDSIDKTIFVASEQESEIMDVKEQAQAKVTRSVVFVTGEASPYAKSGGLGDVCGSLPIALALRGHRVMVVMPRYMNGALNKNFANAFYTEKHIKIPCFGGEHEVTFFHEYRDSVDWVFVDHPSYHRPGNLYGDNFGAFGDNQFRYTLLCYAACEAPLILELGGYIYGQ
The experiment in a line: Y2H; input trait library. An outline of the steps:
as §1

B1: OsPN23878 aa 824-935 (other)
chain: SLARKHRAAIILQRNLKCWLARRYFVNIRKASVVIQSGIRGCLVRRCAGNVDLLNVLREFESKKEAEGDQILIKASFLAELQRRILKAEATVREKDEENEMLQQRLQQYENR
notes: prey, AD fusion
Take B1: the binding result in [1] was “binds”.

B2: OsPN23878 aa 685-888 (other)
chain: IYEQGLVLQQLKCCGVLEVVRISRSGYPTRMTHQKFARRYGFLLLEDVASQDPLSVSVAILHQFNILPEMYQVGYTKLFFRTGQIGKLEDTRNRTLHGILRVQSCFRGHQARRHARERIRGVLALQSFIRGENARKMYSSLARKHRAAIILQRNLKCWLARRYFVNIRKASVVIQSGIRGCLVRRCAGNVDLLNVLREFESKKE
notes: prey, AD fusion; also called Oryza sativa Putative Myosin (AAL31066.1)
Take B2: in assay [2], the binding result is “binds”.

B3: OsGF14-c aa 1-150 (other)
chain: MSREENVYMAKLAEQAERYEEMVEYMEKVAKTVDVEELTVEERNLLSVAYKNVIGARRASWRIVSSIEQKEEGRGNEEHVTLIKEYRGKIEAELSKICDGILKLLDSHLVPSSTAAESKVFYLKMKGDYHRYLAEFKTGAERKEAAESTM
notes: bait, Gal4 DBD fusion; also called PN12464; O. sativa 14-3-3 Protein Homolog GF14-c
With B3, the binding result in assay [3] is given as “binds”.

B4: OsPN29037 aa 73-165 (other)
chain: VVFDKDGVLEQIGEGKGYVDMSTVDAATSCKISEAIKQKGGAFVEAPVSGSKKPAEDGQLVILAAGDKVLYDDMVPAFDVLGKKSFFLGEIGN
notes: prey, AD fusion; also called Novel Protein PN29037
As to B4, the binding result in assay [4] is listed as “binds”.

B5: OsDAD1 aa 30-115 (other)
chain: DLYVVFAVATALIQVVYMGIVGSFPFNSFLSGVLSCIGTAVLAVCLRIQVNKDNKEFKDLPPERAFADFVLCNLVLHLVIMNFLG
notes: bait, Gal4 DBD fusion; also called PN20251; O. sativa Defender Against Apoptotic Death 1
For the molecule B5, the binding result in [5] and in assay [6] was “binds” each time.

B6: PN20696 (OsERP) aa 54-144 (other)
chain: ETFMFSVTHNATELIIKLMDSDSGTDDDFVGEATISLEAIYTEGSIPPTVYNVVKEEEYRGEIKVGLTFTPEDDRDRGLSEEDIGGWKQSS
notes: prey, AD fusion; also called Elicitor responsive protein
For the molecule B6, the binding result in [7] is “binds”.

B7: OsPN23226 aa 345-432 (other)
chain: WFMSNQETSFVTIGQRVLANPLRVRFHYGHPDIFDRLFHLTRGGVSKASKIINLSEDIFAGFNSTLREGNVTHHEYMQVGKGRDVGLN
notes: prey, AD fusion; also called Novel Protein PN23226, Callose synthase
For B7, the binding result in assay [8] was “binds”.

B8: OsDAD1 aa 1-115 (other)
chain: MPRATSDAKLLIQSLGKAYAATPTNLKIIDLYVVFAVATALIQVVYMGIVGSFPFNSFLSGVLSCIGTAVLAVCLRIQVNKDNKEFKDLPPERAFADFVLCNLVLHLVIMNFLG
notes: bait, Gal4 DBD fusion; also called PN20251
For B8, in assay [9], the binding result is listed as “binds”.

B9: OsPN23829 aa 3-220 (other)
chain: LSVEKTSSGREYKVKDLSQADFGRLEIELAEVEMPGLMACRAEFGPSQPFKGARISGSLHMTIQTAVLIETLTALGAEVRWCSCNIFSTQDHAAAAIARDSAAVFAWKGETLEEYWWCTERCLDWGVGGGPDLIVDDGGDATLLIHEGVKAEEEFEKSGKVPDPESTDNAEFKIVLTIIRDGLKSDPSKYRKMKERLVGVSEETTTGVKRLYQMQETG
notes: prey, AD fusion
For the molecule B9, in [10], the binding result was “binds”.

Turning to B10, in [11], the binding result is recorded as “binds”.

As to B11, the binding result in assay [12] is recorded as “binds”.

B12: OsCRTC aa 250-425 (other)
chain: PKEIPDPDAKKPEAGADEEDGEWTAPTIRNPEYKGPWKQKKIKNPNYQGKWKPPMIATPDFQDDPYIYAFDSLKSIGIELWQVKSGTLFDNILITDDAALAKTFAEETWAKHKDAEKAAFDEAEKKKEEEEAAKAGEDDDDLDDEDAEDEDKADEKADSDAEDGKDSDDEKHDEL
notes: bait, Gal4 DBD fusion; also called PN20544
With B12, the binding result in assay [13] and in assay [14] was “binds” throughout.
